Source: patent publication US20250084179A1 (Xencor, published 2025)

Tests used:
[1] = target: T1, TROP2 (UniProt P09758 27-274, limits assumed); assay: KD; method and format not stated
T1 construct: also called tumor-associated calcium signal transducer 2; TACSTD2
T1 sequence (looked up): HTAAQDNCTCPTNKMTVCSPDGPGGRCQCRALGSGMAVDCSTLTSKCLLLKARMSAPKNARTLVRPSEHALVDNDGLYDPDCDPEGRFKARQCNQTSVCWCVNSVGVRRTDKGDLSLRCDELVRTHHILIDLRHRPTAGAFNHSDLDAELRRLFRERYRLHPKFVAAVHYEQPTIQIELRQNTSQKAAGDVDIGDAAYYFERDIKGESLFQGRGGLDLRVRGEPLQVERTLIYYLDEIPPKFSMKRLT

[2] = target: T1, TROP2; assay: monovalent KD; method not stated
[3] = target: T2, Cyno TROP2 (Macaca fascicularis, UniProt A0A2K5UE71); assay: not stated; bivalent format
T2 construct: Construct used in the measurement is not described; also called cynomolgus TROP2
T2 sequence (antigen): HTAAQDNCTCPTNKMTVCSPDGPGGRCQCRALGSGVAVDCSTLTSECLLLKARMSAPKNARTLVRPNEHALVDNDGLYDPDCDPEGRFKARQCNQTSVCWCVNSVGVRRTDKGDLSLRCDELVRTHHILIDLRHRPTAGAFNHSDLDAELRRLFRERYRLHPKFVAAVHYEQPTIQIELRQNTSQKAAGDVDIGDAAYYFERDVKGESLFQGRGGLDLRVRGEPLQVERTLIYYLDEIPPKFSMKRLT

[4] = target: T1, TROP2; assay: not stated; bivalent format
[5] = target: T3, human CD28 (human, UniProt P10747 19-152, limits assumed); assay: Octet, monovalent KD; format of this comparator not stated
T3 construct: also called Cluster of Differentiation 28; Tp44

[6] = target: T3, human CD28; assay: not stated; value printed beside the name in the 'CD28 Mutations' cell, apparently a reference affinity of this domain
[7] = target: T3, human CD28; assay: Octet, monovalent KD of Fab
[8] = target: T3, human CD28; assay: another set of experiments; monovalent Fab, method not restated (Octet for the FIG. 35 data)

B1: 1A3A4.312 (antibody, V domains shown)
VH: QVQLVQSGAEVKKPGASVKVSCKASGYTFTRHYMHWVRQAPGQGLEWMGIINPGGGATSYAQKFQGRVTMTRDTSTSTVYMELSSLRSEDTAVYYCAREDYAGKWWGMDYWGQGTLVTVSS
VL: not shown
notes: Phage-derived TROP2 clone; also called 1A3A4.312[TROP2]_H1 with L1
With B1 as the binder, how does the Kd [1] read?
Its Kd is 80 nM.

B2: 1B11A3.316 (antibody, V domains shown)
VH: QVQLVQSGAEVKKPGASVKVSCKASGYTFTRYYMHWVRQAPGQGLEWMGIINPGGGSTIYAQKFQGRVTMTRDTSTSTVYMELSSLRSEDTAVYYCARDDVIVDAFDYWGQGTLVTVSS
VL: not shown
notes: Phage-derived TROP2 clone; also called 1B11A3.316[TROP2]_H1 with L1
Which Kd [1] does the source give for B2 here?
Its Kd is 54 nM.

B3: 1F11-1A3.315_H1L1 (antibody, V domains shown)
VH: QVQLVQSGAEVKKPGASVKVSCKASGYTFTRYYMHWVRQAPGQGLEWMGIINPGGGSTGYAQKFQGRVTMTRDTSTSTVYMELSSLRSEDTAVYYCARDDVVAADVFDYWGQGTLVTVSS
VL: not shown
notes: also called 1F11-1A3.315[Trop2]_H1 with L1; copies: 1 + 1
Which results are given for B3?
Kd [2]: 13 nM; Kd [3]: 9.9 nM; koff [3]: 0.0021 s⁻¹; kon [3]: 210000 M⁻¹ s⁻¹; Kd [4]: 6.5 nM; koff [4]: 0.0012 s⁻¹; kon [4]: 190000 M⁻¹ s⁻¹

B4: 1F11-1A3.315_H1.10_L1 (antibody, V domains shown)
VH: QVQLVQSGAEVKKPGASVKVSCKASGYTFTRYYMHWVRQAPGQGLEWMGIIEPGGGSTTYAQKFQGRVTMTRDTSTSTVYMELSSLRSEDTAVYYCARDDVVAADVFDYWGQGTLVTVSS
VL: not shown
notes: also called 1F11-1A3.315[Trop2]_H1.10 with L1
Which Kd [2] does the source give for B4 here?
Its Kd is 5 nM.

What about the Kd [3] of the same binder?
The Kd was 1.5 nM.

What about the koff [3] of the same binder?
Its koff is 0.00053 s⁻¹.

What about the kon [3] of the same binder?
Its kon is 340000 M⁻¹ s⁻¹.

And the Kd [4]?
Its Kd is 0.98 nM.

And the koff [4]?
The koff was 0.00033 s⁻¹.

What about the kon [4] of the same binder?
The kon was 330000 M⁻¹ s⁻¹.

B5: 1F11-1A3.315_H1.19_L1 (antibody, V domains shown)
VH: QVQLVQSGAEVKKPGASVKVSCKASGYTLTRYYMHWVRQAPGQGLEWMGIIEPGGGSTTYAQKFQGRVTMTRDTSTSTVYMELSSLRSEDTAVYYCARDDVVKADVFDYWGQGTLVTVSS
VL: not shown
notes: also called 1F11-1A3.315[Trop2]_H1.19 with L1
Which results are given for B5?
Kd [2]: 2 nM; Kd [3]: 0.46 nM; koff [3]: 0.0002 s⁻¹; kon [3]: 450000 M⁻¹ s⁻¹; Kd [4]: 0.25 nM; koff [4]: 0.0001 s⁻¹; kon [4]: 410000 M⁻¹ s⁻¹

B6: 2C5A3.316 (antibody, V domains shown)
VH: QVQLVQSGAEVKKPGSSVKVSCKASGGTFTTSGISWVRQAPGQGLEWMGGIVPLLGTVNYAQKFQGRVTITADESTSTAYMELSSLRSEDTAVYYCARSGAATDARYGLDYWGQGTLVTVSS
VL: not shown
notes: Phage-derived TROP2 clone; also called 2C5A3.316[TROP2]_H1 with L1
Which Kd [1] does the source give for B6 here?
Its Kd is 345 nM.

B7: 1B2A4.312 (antibody, V domains shown)
VH: QVQLVQSGAEVKKPGASVKVSCKASGYTFTGSYMHWVRQAPGQGLEWMGIINPSGESTVYAQKFQGRVTMTRDTSTSTVYMELSSLRSEDTAVYYCARDPGGSWPFSYALDYWGQGTLVTVSS
VL: not shown
notes: Phage-derived TROP2 clone; also called 1B2A4.312[TROP2]_H1 with L1
B7 was tested. Which Kd [1] did it give?
The Kd was 64 nM.

B8: 1A7_H1.14_L1.71 (antibody, V domains shown)
VH: EVQLLESGGGLVQPGGSLRLSCAASGFTFSSYYMSWVRQAPGKGLEWVSTISESGDSTYYADSVKGRFTISRDNSKNTLYLQMNSLRAEDTAVYYCAKSGPGLRQVGFDYWGQGTLVTVSS
VL: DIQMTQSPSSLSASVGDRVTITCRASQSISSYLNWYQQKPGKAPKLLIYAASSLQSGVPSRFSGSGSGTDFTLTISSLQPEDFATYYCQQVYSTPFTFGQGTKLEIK
notes: also called 1A7[CD28]_H1.14_L1.71
How did the Kd [5] turn out when B8 was run?
Its Kd is 38 nM.

And the Kd [6]?
Its Kd is 37 nM.

B9: 1A7_H1.118_IGKV1-39_L1 (Fab, V domains shown)
VH: EVQLLESGGGLVQPGGSLRLSCAASGFTFSSYYMSWVRQAPGKGLEWVSTIAESGDPTYYADSVKGRFTISRDNSKNTLYLQMNSLRAEDTAVYYCAKSGPGLRQVGFDYWGQGTLVTVSS
VL: not shown
notes: also called 1A7[CD28]_H1.118 paired with IGKV1-39 germline VL
What does the source list for B9?
Kd [7]: 63 nM; Kd [8]: ~400 nM

B10: 1A7_H1.114_IGKV1-39_L1 (Fab, V domains shown)
VH: EVQLLESGGGLVQPGGSLRLSCAASGFTFSSYYMSWVRQAPGKGLEWVSTIAERGDSTYYADSVKGRFTISRDNSKNTLYLQMNSLRAEDTAVYYCAKSGPGLRQVGFDYWGQGTLVTVSS
VL: not shown
notes: also called 1A7[CD28]_H1.114 paired with IGKV1-39 germline VL (1F11-1A3.315 L1)
How did the Kd [7] turn out when B10 was run?
Its Kd is 44 nM.

B11: 1A7_H1.130_IGKV1-39_L1 (Fab, V domains shown)
VH: EVQLLESGGGLVQPGGSLRLSCAASGFTFSSYYMSWVRQAPGKGLEWVSTISERGDVTYYADSVKGRFTISRDNSKNTLYLQMNSLRAEDTAVYYCAKSGPGLRQVGFDYWGQGTLVTVSS
VL: not shown
notes: also called 1A7[CD28]_H1.130 paired with IGKV1-39 germline VL (1F11-1A3.315 L1)
For B11, which Kd [7] is on record?
The Kd was 46 nM.

B12: 1A7_H1.125_IGKV1-39_L1 (Fab, V domains shown)
VH: EVQLLESGGGLVQPGGSLRLSCAASGFTFSSYYMSWVRQAPGKGLEWVSTISEHGLSTYYADSVKGRFTISRDNSKNTLYLQMNSLRAEDTAVYYCAKSGPGLRQVGFDYWGQGTLVTVSS
VL: not shown
notes: also called 1A7[CD28]_H1.125 paired with IGKV1-39 germline VL (1F11-1A3.315 L1)
Which Kd [7] does the source give for B12 here?
Its Kd is 28 nM.

B13: 1A7_H1.129_IGKV1-39_L1 (Fab, V domains shown)
VH: EVQLLESGGGLVQPGGSLRLSCAASGFTFSSYYMSWVRQAPGKGLEWVSTISERADSTYYADSVKGRFTISRDNSKNTLYLQMNSLRAEDTAVYYCAKSGPGLRQVGFDYWGQGTLVTVSS
VL: not shown
notes: Constant domains not specified for the assay; also called 1A7[CD28]_H1.129 paired with IGKV1-39 germline VL; 1F11-1A3.315 L1 as common light chain
B13 was tested. Which Kd [7] did it give?
The Kd was 21 nM.

And the Kd [8]?
Its Kd is 60 to 70 nM.

B14: 1C9A4.313 (antibody, V domains shown)
VH: QVQLVQSGAEVKKPGSSVKVSCKASGGTFSNYAIGWVRQAPGQGLEWMGGIVPIFGVADYAQKFQGRVTITADESTSTAYMELSSLRSEDTAVYYCAREGWYLLNYFDYWGQGTLVTVSS
VL: not shown
notes: Phage-derived TROP2 clone; also called 1C9A4.313[TROP2]_H1 with L1
With B14 as the binder, how does the Kd [1] read?
The Kd was 40 nM.
